Source: US20220235344A1, “TRYPSIN VARIANTS WITH IMPROVED ENZYMATIC PROPERTIES” (BIOPHARMA TRANSLATIONSINSTITUT DESSAU FORSCHUNGS GMBH, priority 2018, published 2022)
Values joined by “and” are separate entries in the source; they are usually repeats but may differ in a detail not shown here. Equal entries are not always repeated.

T1: Bz-PGGYRAHAG-OH (acyl donor) (Rattus norvegicus, UniProt P00763, D194K/K66E/Y45H/Y65H)
T1 construct: made in house; host or cells: Pichia pastoris X-33
T1 sequence (P00763 24-246 Y45H/Y65H/K66E/D194K): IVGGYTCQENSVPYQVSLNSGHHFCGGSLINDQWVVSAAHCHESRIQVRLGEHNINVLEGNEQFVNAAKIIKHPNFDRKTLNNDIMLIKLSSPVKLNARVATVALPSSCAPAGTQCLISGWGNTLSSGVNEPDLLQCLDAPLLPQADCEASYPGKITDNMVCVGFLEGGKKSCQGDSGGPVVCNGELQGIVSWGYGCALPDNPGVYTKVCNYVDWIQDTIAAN

T2: H-RAHAK(DNP)-OH (acyl acceptor), acyl donor Bz-PGGYRAHAG-OH (Rattus norvegicus, UniProt P00763, D194K/K66E/Y45H/Y65H)
T2 construct: made in house; host or cells: Pichia pastoris X-33
T2 sequence (P00763 24-246 Y45H/Y65H/K66E/D194K): T1 sequence (P00763 24-246 Y45H/Y65H/K66E/D194K)

T3: Bz-PGGYRAHAG-OH (acyl donor) (Rattus norvegicus, UniProt P00763, A221T/D194K/E154Y/G219Q/H46F/K102D/K66E/L104F/N146E/Q197A/R101E/S195V/S215G/Y45H/Y65H)
T3 construct: made in house; host or cells: Pichia pastoris X-33
T3 sequence (P00763 24-246 Y45H/H46F/Y65H/K66E/R101E/K102D/L104F/N146E/E154Y/D194K/S195V/Q197A/S215G/G219Q/A221T): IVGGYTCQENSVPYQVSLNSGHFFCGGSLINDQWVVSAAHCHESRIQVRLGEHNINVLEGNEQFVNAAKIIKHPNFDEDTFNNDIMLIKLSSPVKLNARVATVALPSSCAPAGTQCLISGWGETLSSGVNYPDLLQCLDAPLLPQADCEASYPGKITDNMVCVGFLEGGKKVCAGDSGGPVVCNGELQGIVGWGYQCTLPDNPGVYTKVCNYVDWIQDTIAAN

B1: Trypsiligase II (trypsin variant Y39H/Y59H/K60E/D189K) (protein)
chain: T1 sequence (P00763 24-246 Y45H/Y65H/K66E/D194K)
B2: A2C8: Trypsiligase II + H40F, A55A, R96E, K97D, L99F, N143E, E151Y, S190V, Q192A, S214G, G219Q, A221T (protein)
chain: T3 sequence (P00763 24-246 Y45H/H46F/Y65H/K66E/R101E/K102D/L104F/N146E/E154Y/D194K/S195V/Q197A/S215G/G219Q/A221T)

Key:
Assay type in all cases: biochemical
[1] = molecular target: T1, Bz-PGGYRAHAG-OH (acyl donor); assay: Turnover rate of the hydrolysis reaction in the absence of a nucleophilic peptide; conditions: Zinc ions (100 μM): yes; varying Bz-PGGYRAHAG-OH, 2 μM trypsin variant, no nucleophilic peptide
Description: (§1) Hydrolysis reactions were performed in a solution containing varying concentrations of the acyl donor Bz-[…]-OH (0-5000 μM for Trypsiligase II, 0-1500 μM for variant A2C8), 2 μM trypsin variant, 100 mM HEPES/NaOH pH 7.8, 100 mM NaCl, 10 mM CaCl2 at 30° C. In case of Trypsiligase II the reactions were performed in the presence of 100 μM ZnCl2. The reaction was started by the addition of enzyme. For kinetic evaluation of the reaction several aliquots of the reaction mixture were quenched with 25% (v/v) acetic acid at distinct time points within 30 minutes. The composition of the reaction mixture was analyzed by UPCL using method I (see example 1). UV absorption of the N-terminal benzoyl-group (Bz-), which is present in the acyl donor as well as in the hydrolysis product, was detected at 254 nm. To determine the turnover rate of the hydrolysis reaction (kcat,HL) the initial rates for the hydrolysis reaction were plotted against the corresponding acyl donor concentration and fitted to the Michaelis Menten equation. Measurements were performed as duplicates and errors were less than 5%.

[2] = molecular target: T2, H-RAHAK(DNP)-OH (acyl acceptor), acyl donor Bz-PGGYRAHAG-OH; assay: KM value of the nucleophilic peptide (acyl acceptor); conditions: Zinc ions (100 μM): yes; 250 μM Bz-PGGYRAHAG-OH, varying H-RAHAK(DNP)-OH
Description: For Trypsiligase II the measurements for KM values of the nucleophilic peptide (acyl acceptor) were carried out in the presence or absence of zinc ions due to its strong zinc ion dependency. In case of variant A2C8 measurements were carried out in the absence of zinc ions.
Transamidation reactions with Trypsiligase II and variant A2C8 were performed in a solution containing 250 μM of the acyl donor Bz-[…]-OH, varying concentrations of the acyl acceptor H-RAHAK(DNP)-OH (0-5000 μM for Trypsiligase II in the absence of zinc ions, 0-1500 μM for Trypsiligase II in the presence of zinc ions, 0-1000 μM for variant A2C8), 0.2-1.5 μM trypsin variant, 100 mM HEPES/NaOH pH 7.8, ±0.1 mM ZnCl2, 100 mM NaCl, 10 mM CaCl2 at 30° C. The reaction was started by the addition of enzyme. For kinetic evaluation of the reaction several aliquots of the reaction mixture were quenched with 25% (v/v) acetic acid at distinct time points within 30 minutes. The composition of the reaction mixture was analyzed by UPCL using method II (see example 1). UV absorption of the 2,4-Dinitrophenyl group (DNP), which is present in the acyl acceptor as well as in the aminolysis product, was detected at 360 nm. To determine the KM value of the nucleophilic peptide the initial rates for the aminolysis reaction were plotted against the corresponding acyl acceptor concentration and fitted to the Michaelis Menten equation. Measurements were performed as duplicates and errors were less than 5%.

[3] = tested on: R1-YRKK-R2 (Bz-PGGYRKKAG-OH) / H-RKKAK(DNP)-OH; assay: Zinc dependence of the transamidation reaction, A2C8 and K7F11, YRKK; conditions: 100 μM acyl donor, 200 μM acyl acceptor
Description: Model transamidation reactions were performed in a solution containing 15 to 250 μM acyl donor, 2 eq. of the corresponding acyl acceptor, varying concentrations of trypsin variant, 100 mM HEPES/NaOH pH 7.8, ±0.1 mM ZnC12, 100 mM NaCl, 10 mM CaCl2) at 30° C. Acyl donor and acyl acceptor had the same amino acids in P1′-P3′ position, e.g. Bz-[…]+H-RAHAK-OH or Bz-[…]+H-RKKAK-OH. Variations are indicated. The acyl acceptor could be equipped with a 2,4-Dinitrophenyl group (DNP) at the side chain of the terminal lysine, e.g. H-RAHAK(DNP)-OH or H-RKKAK(DNP)-OH. The reactions were started by the addition of enzyme. To record the time course of product formation and/or for kinetic evaluation of the reaction several aliquots of the reaction mixture were quenched with 25% (v/v) acetic acid at distinct time points within up to 4 hours. The composition of the reaction mixture was analyzed by UPCL with method I or II, depending on the absence (method 1) or presence (method II) of a 2,4-dinitrophenyl group within the acyl acceptor (see example 1). Measurements were performed as duplicates and errors were less than 5%.

[4] = molecular target: T3, Bz-PGGYRAHAG-OH (acyl donor); assay: Turnover rate of the hydrolysis reaction in the absence of a nucleophilic peptide; conditions: Zinc ions: no; varying Bz-PGGYRAHAG-OH, 2 μM trypsin variant, no nucleophilic peptide
Description: as §1

[5] = tested on: Bz-PGGYRAHAG-OH (acyl donor); assay: as above
Description: as §1

Molecule | kcat, HL (mkat/mol) [1] [mkat/mol] | Km [2] | kcat, AL^app + Zn^2+ (mkat/mol) ([3]; 0.1 mM ZnCl2) | product yield + Zn^2+ (%) ([3]; 0.1 mM ZnCl2) | kcat, AL^app − Zn^2+ (mkat/mol) ([3]; absence of zinc ions) | product yield − Zn^2+ (%) ([3]; absence of zinc ions) | kcat, HL (mkat/mol) [4] [mkat/mol] | reduction in the enzyme's hydrolysis activity versus Trypsiligase II (factor) [5]
B1 | 602.1 | 143 µM and 144 µM |  |  |  |  |  | 
B2 |  |  | 18.04 | 59.0 | 17.7 | 59.7 | 86.6 | 7
